The results in this text go back to article PMC3296735.

Test [1] concerns the target T1, human GIPR with C-terminal V5 epitope (GIPR-V5) (human) (UniProt P48546).
T1 sequence: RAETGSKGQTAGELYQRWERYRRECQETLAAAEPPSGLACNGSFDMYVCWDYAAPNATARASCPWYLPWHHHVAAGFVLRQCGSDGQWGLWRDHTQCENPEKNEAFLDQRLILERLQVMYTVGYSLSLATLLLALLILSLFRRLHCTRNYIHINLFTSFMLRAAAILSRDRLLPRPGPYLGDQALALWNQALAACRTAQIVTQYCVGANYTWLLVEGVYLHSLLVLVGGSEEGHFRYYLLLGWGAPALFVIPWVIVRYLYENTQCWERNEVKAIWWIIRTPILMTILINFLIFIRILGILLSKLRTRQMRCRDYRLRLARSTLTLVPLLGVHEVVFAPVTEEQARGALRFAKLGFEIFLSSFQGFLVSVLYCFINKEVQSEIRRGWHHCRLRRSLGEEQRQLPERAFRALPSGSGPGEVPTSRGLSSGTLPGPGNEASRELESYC

Test [2] deals with T2, N62Q-GIPR-V5 (human) (UniProt P48546).
T2 sequence: T1 sequence with N41Q

In test [3] the target is T3, N77Q-GIPR-V5 (human) (UniProt P48546).
T3 sequence: T1 sequence with N56Q

The target of test [4] is T1, human GIPR with C-terminal V5 epitope (GIPR-V5) (human). This is another data set of the same source.
In test [5] the target is N63Q-GLP1R-V5 (human) (UniProt P43220).
Test [6] has as its target N63,82Q-GLP-1R-V5 (human) (UniProt P43220).
In test [7] the target is N82Q-GLP1R-V5 (human) (UniProt P43220).
The target of test [8] is human GLP1R with C-terminal V5 epitope (GLP1R-V5) (human) (UniProt P43220).
Test [9] has as its target N63,82,115Q-GLP-1R-V5 (human) (UniProt P43220).
The target of test [10] is N115Q-GLP1R-V5 (human) (UniProt P43220).

Changes are numbered by the printed parent chain.

As for “GIP peptide (Glucose-dependent Insulinotropic Polypeptide) (from UniProt P09681 52-93) (ligand)”, in test [1], the EC50 of GIP for cAMP production (LANCE TR-FRET) in CHO cells expressing the receptor; series of Figure 8A came out at 0.034 nM. Besides, the EC50 of GIP for cAMP production (LANCE TR-FRET, 30 min stimulation) in CHO cells expressing the receptor in [2] came to 0.1 nM; in test [3] it was 3.1 nM; in test [4], 0.082 nM.

Take GLP-1 7–36 amide (ligand): the EC50 of GLP-1 for cAMP production (LANCE TR-FRET, 30 min stimulation) in CHO cells expressing the receptor worked out at 0.63 nM in test [5]; 0.58 nM in test [6]; 0.71 nM in test [7]; 2.7 nM in [9]; 0.72 nM in test [10]. The substance further showed an EC50 of GLP-1 for cAMP production (LANCE TR-FRET, 30 min stimulation) in CHO cells expressing the receptor; series with the double and triple mutants in [8] of 0.22 nM. The substance also had an EC50 of GLP-1 for cAMP production (LANCE TR-FRET, 30 min stimulation) in CHO cells expressing the receptor; series with the single site mutants in test [8] of 0.41 nM.
